Source: patent US7838495B2, “Compositions and methods of use of EPB1, and ErbB3 binding protein” (University of Maryland, Baltimore, priority 2007, dated 2010)

Tests used:
Assay type in all cases: cell-based, human
[1] = tested on: C81 cells; assay: Sensitivity of C81 transfectants to 4 Gy gamma radiation; conditions: C81 EPB1 transfectants, 72 h after exposure (vector less than 10%)
Text: Restoration or increase of EPB1 expression can sensitize the androgen independent prostate cancer C81 cells to radiation. Radiotherapy is another important treatment for locally and regionally advanced prostate cancer. However, resistance of prostate cancer cells to radiation limits its efficacy and dose escalation is obviously not the solution to this common phenomenon. Bcl-2 overexpression may be the same critical molecule underlying the resistance to radiotherapy as to the chemotherapy in prostate cancer. 4 Gy gamma radiation killed 100% of EPB1 transfectants while less than 10% of C81 vector transfectants were dead in 72 h after exposure to the same 4 Gy gamma irradiation. […] Without being bound by theory, it is contemplated that the increase in sensitivity to radiation might be due to the decreased levels of Bcl-2 in EPB1 transfectants given the importance of Bcl-2 function in resistance to radiation.

[2] = tested on: MCF-7 cells; assay: Western blot of ErbB2 and ErbB3 in MCF-7 EBP1 transfectants; conditions: MCF-7-EBP1 transfectants vs vector controls
Experimental: FIG. 10A-C. Effect of ectopic expression of EBP1 on ErbB3 or ErbB2 protein levels. (A and B) Lysates of logarithmically growing MCF-7 vector control cells (CMV) or EBP1 transfected cells (Ebp1) or (C) AU565 cells were blotted with antibodies for ErbB3 or ErbB2 and actin as indicated. Data are representative of three experiments.
(§1) 2.5. Western blot analysis. Total cell extracts were prepared by direct lysis of cells with lysis buffer [50 mM Tris-HCl (pH 7.4), 1 mM EDTA, 250 mM NaCl, 1% Triton X-100, 0.5 mM DTT, and 1× Complete™ protease inhibitor]. Protein concentrations were measured using a detergent compatible kit (Bio-Rad). Proteins (30 lg per well) were resolved by SDS-PAGE, transferred to PVDF membranes, and immunoblotted as described. […] Images were quantified using IMAGE-J software (NIH). […] Relative cell numbers were determined 4 days later using a Promega Proliferation Reagent as per manufacturer's instructions with absorbance being read at 490 nm using a Dynex plate reader. […] Data were analyzed using a two-tailed Students t-test and a p <0.05 was deemed statistically significant. […]

[3] = tested on: MCF-7 cells; assay: HRG-induced MAPK and AKT phosphorylation in MCF-7 transfectants; conditions: EBP1 overexpressing MCF-7 cells
Experimental: FIG. 11A-C. Ebp1 affects HRG-induced downstream signaling pathways. Serum starved MCF-7 vector control (CMV) or EBP1 transfected cells (Ebp1) cells were stimulated with HRG (20 ng/ml) for the indicated times. Cells lysates were blotted with antibodies to (A) phosphor MAPK and total MAPK or (B) phospho-Akt or total AKT. Data are representative of three experiments. […] Eight hours after transfection, cells were refed with media with 2% serum and the indicated concentrations of HRG. Growth was assessed by MTT assay 3 days later. Data are representative of two experiments.
as §1

B1: EBP1: ErbB3 binding protein (SEQ ID NO: 2), AR corepressor, here ectopically expressed in cancer cells by stable transfection of an expression plasmid (protein, listed as Homo sapiens)
chain: MSGEDEQQEQTIAEDLVVTKYKMGGDIANRVLRSLVEASSSGVSVLSLCEKGDAMIMEETGKIFKKEKEMKKGIAFPTSISVNNCVCHFSPLKSDQDYILKEGDLVKIDLGVHVDGFIANVAHTFVVDVAQGTQVTGRKADVIKAAHLCAEAALRLVKPGNQNTQVTEAWNKVAHSFNCTPIEGMLSHQLKQHVIDGEKTIIQNPTDQQKKDHEKAEFEVHEVYAVDVLVSSGEGKAKDAGQRTTIYKRDPSKQYGLKMKTSRAFFSEVERRFDAMPFTLRAFEDEKKARMGVVECAKHELLQPFNVLYEKEGEFVAQFKFTVLLMPNGPMRITSGPFEPDLYKSEMEVQDAELKALLQSSASRKTQKKKKKKASKTAENATSGETLEENEAGD
modifications: FLAG tag
B1 was tested, and the “cells killed by 4 Gy gamma radiation” value [1] was 100%, the ErbB2 protein level [2] was “significantly decreased” and the ErbB3 protein level [2] was “no change”. For the same molecule, the “basal MAPK phosphorylation” value [3] was “constitutively phosphorylated”.
